Test [1] addresses T1, human CD5 cell differentiation marker (human, UniProt P06127 25-495).
T1 construct: whole, on cells; also called CD5 antigen; human T cell determinant CD5
T1 sequence: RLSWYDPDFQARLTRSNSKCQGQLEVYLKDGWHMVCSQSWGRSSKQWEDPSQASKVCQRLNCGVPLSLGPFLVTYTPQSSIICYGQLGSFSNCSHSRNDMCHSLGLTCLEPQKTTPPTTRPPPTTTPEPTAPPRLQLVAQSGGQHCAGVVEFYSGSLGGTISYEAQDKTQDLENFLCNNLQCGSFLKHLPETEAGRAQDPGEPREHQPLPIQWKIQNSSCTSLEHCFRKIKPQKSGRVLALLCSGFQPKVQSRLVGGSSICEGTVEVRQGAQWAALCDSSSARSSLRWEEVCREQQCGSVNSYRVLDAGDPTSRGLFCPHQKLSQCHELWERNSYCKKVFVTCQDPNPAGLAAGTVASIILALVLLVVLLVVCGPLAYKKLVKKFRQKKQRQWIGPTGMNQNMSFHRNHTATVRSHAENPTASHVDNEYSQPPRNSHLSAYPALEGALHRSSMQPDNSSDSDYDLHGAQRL
Put plainly: competition with 125I-cH65 IgG on Molt-4M cells.

The target of test [2] is T1, human CD5 cell differentiation marker. Put plainly: cell-based or functional assay.

B1: chimeric H65 IgG (antibody, V domains shown)
VL: […]
VH: QIQLVQSGPELKKPGETVKISCKASGYTFTNYGMNWVKQAPGKGLRWMGWINTHTGEPTYADDFKGRFAFSLETSASTAYLQINNLKNEDTATYFCTRRGYDWYFDVWGAGTTVTVSS
notes: also called 125I-cH65 IgG
Regarding B1, the binding result in test [1] is “binds”.

B2: he3Fab-rGelA50(C44) (other)
light: DIQMTQSPSSLSASVGDRVTITCRASQDINSYLSWFQQKPGKAPKTLIYRANRLESGVPSRFSGSGSGTDYTLTISSLQYEDFGIYYCQQYDESPWTFGGGTKLEIK
heavy: EIQLVQSGGGLVKPGGSVRISCAASGYTFTNYGMNWVRQAPGKGLEWMGWINTHTGEPTYADSFKGRFTFSLDDSKNTAYLQINSLRAEDTAVYFCTRRGYDWYFDVWGQGTTVTVSS
chain: GLDTVSFSTKGATYITYVNFLNELRVKLKPEGNSHGIPLLRKKCDDPGKAFVLVALSNDNGQLAEIAIDVTSVYVVGYQVRNRSYFFKDAPDAAYEGLFKNTIKTRLHFGGSYPSLEGEKAYRETTDLGIEPLRIGIKKLDENAIDNYKPTEIASSLLVVIQMVSEAARFTFIENQIRNNFQQRIRPANNTISLENKWGKLSFQIRTSGANGMFSEAVELERANGKKYYVTAVDQVKPKIALLKFVDKDPK
Take B2: in test [2], the “IC50 (pMT), whole cell cytotoxicity, CEM Cells” value came out at 173 pMT and the “IC50 (pMT), whole cell cytotoxicity, HSB2 Cells” value came to 165 pMT.

B3: he3 IgG (human-engineered H65 antibody, moderate-risk changes, ATCC HB 11206) (antibody, V domains shown)
VH: EIQLVQSGGGLVKPGGSVRISCAASGYTFTNYGMNWVRQAPGKGLEWMGWINTHTGEPTYADSFKGRFTFSLDDSKNTAYLQINSLRAEDTAVYFCTRRGYDWYFDVWGQGTTVTVSS
VL: DIQMTQSPSSLSASVGDRVTITCRASQDINSYLSWFQQKPGKAPKTLIYRANRLESGVPSRFSGSGSGTDYTLTISSLQYEDFGIYYCQQYDESPWTFGGGTKLEIK
notes: also called he3 antibody; humanized antibody
As for B3, in test [1], the binding result is given as “binds”.

Values taken from patent US20030166196A1 (published 2003).
